Assay results taken from article PMC2926604 (Nucleic Acids Research, 2010).
Substitutions are numbered along the chain they refer to. Numbers in names are those of the source.

T1: Archaeoglobus fulgidus exosome subunit Rrp42 (Archaeoglobus fulgidus, UniProt O29756 1-259)
T1 sequence: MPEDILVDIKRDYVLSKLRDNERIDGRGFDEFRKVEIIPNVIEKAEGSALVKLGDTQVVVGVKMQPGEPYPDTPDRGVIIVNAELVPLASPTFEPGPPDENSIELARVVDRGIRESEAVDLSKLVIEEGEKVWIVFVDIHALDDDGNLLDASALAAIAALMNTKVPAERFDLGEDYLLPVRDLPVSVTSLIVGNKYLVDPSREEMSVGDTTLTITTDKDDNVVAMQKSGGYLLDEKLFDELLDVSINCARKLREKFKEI

T2: Archaeoglobus fulgidus exosome subunit Rrp42 Y70A (Archaeoglobus fulgidus, UniProt O29756 1-259, Y70A)
T2 sequence: T1 sequence with Y70A

T3: Rrp41 (archaeal exosome subunit);Rrp42 Y70A;Csl4 (exosome cap) (Archaeoglobus fulgidus (printed …, UniProt O29757;O29756;O30033 1-258;1-259;1-179, |Y70A|))
T3 sequence 1: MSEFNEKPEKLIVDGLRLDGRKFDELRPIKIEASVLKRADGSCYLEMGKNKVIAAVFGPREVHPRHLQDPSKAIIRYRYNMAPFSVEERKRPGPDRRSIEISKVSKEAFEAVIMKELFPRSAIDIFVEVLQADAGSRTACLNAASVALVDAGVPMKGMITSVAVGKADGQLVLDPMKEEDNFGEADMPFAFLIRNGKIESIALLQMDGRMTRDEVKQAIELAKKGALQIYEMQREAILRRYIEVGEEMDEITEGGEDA
T3 sequence 2: T1 sequence with Y70A
T3 sequence 3: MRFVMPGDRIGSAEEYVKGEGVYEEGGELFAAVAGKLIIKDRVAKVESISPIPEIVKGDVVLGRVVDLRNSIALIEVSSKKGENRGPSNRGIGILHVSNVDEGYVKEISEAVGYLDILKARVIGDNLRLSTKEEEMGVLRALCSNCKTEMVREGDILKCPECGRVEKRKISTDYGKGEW

T4: Rrp41 (archaeal exosome subunit);Rrp42 (archaeal exosome subunit);Csl4 (exosome cap) (Archaeoglobus fulgidus (printed …, UniProt O29757;O29756;O30033 1-258;1-259;1-179, ||))
T4 sequence 1: T3 sequence 1
T4 sequence 2: T1 sequence
T4 sequence 3: T3 sequence 3

B1: Archaeoglobus fulgidus exosome cap subunit Csl4 (natural protein)
chain: T3 sequence 3
B2: Archaeoglobus fulgidus exosome subunit Rrp41 (natural protein)
chain: T3 sequence 1
B3: Archaeoglobus fulgidus exosome subunit Rrp41 D180A (natural protein)
chain: T3 sequence 1 with D180A
B4: Archaeoglobus fulgidus exosome cap subunit Rrp4 (natural protein, UniProt O29758 1-223, looked up)
chain: MRKIVLPGDLLSTNPRAAGYGTYVEGGKVYAKIIGLFDQTETHVRVIPLKGRYTPSVGDVVIGIIREVAANGWAVDIYSPYQAFLPVSENPEMKPNKKPNEVLDIGDAIIAKVLNIDPKMKVTLTMKDRICRPIRFGRIVAINPARVPRVIGKKGSMIKLLKSELDVQIVVGQNGLIWVNGDRRKVSIAEEAIYLIEQEAHTEGLTDRVAEFIKRRKADVGIQ
B5: 6-mer RNA for crystallization (ssRNA)
RNA: CCCCUC

Experiments:
[1] = molecular target: B2; assay: crystal structure
[2] = molecular target: T1, Archaeoglobus fulgidus exosome subunit …; assay: crystal structure
[3] = molecular target: T2, Archaeoglobus fulgidus exosome subunit …; assay: crystal structure
[4] = molecular target: T1, Archaeoglobus fulgidus exosome subunit …; assay: SAXS
[5] = molecular target: B3; assay: SAXS
[6] = molecular target: T3, Rrp41 (archaeal exosome subunit);Rrp42 …; assay: X-ray crystallography
[7] = molecular target: T4, Rrp41 (archaeal exosome subunit);Rrp42 …; assay: X-ray crystallography

binding result [2]	binding result [3]	binding result [4]	Binder	other results
binds	binds	–	B1	binding result [1]: binds
binds	binds	–	B2	–
–	–	binds	B3	–
–	–	binds	B4	binding result [5]: binds
–	–	–	B5	binding result [6]: binds; binding result [7]: binds
